The values that follow come from patent US20200040057A1 (IMMATICS BIOTECHNOLOGIES, published 2020).

For the first experiment, the target named is HLA-B*07 (human). Put plainly: UV peptide exchange ELISA; +++ = yield >50.
On to GSRPVTGSV, for which the peptide exchange yield lay within 50 to 75%.

The molecule RPPPSRRAVL registered a peptide exchange yield of 50 to 75%.

For the molecule RPLPNSVIHV, the peptide exchange yield fell in the range of 50 to 75%.

Take VPAQRLGLLL: the peptide exchange yield fell in the range of 50 to 75%.

Consider NPERHKPSF, for which the peptide exchange yield lay within 50 to 75%.

In turn, TVRPKNAAL came in with a peptide exchange yield of 50 to 75%.

In the case of YPMIPPAQL, the peptide exchange yield fell in the range of 50 to 75%.

As for HVAQPAVVL, the peptide exchange yield is 50 to 75%.

The molecule RPVQGIPTY yielded a peptide exchange yield of 50 to 75%.

LPRALMRST returned a peptide exchange yield of 50 to 75%.

APRGSPPI: the peptide exchange yield was 50 to 75%.

On to VAAAARLTL, for which the peptide exchange yield lay in the range of 50 to 75%.

Consider GPKKFIVKL, for which the peptide exchange yield is 50 to 75%.

Regarding APLHGGGSL, the peptide exchange yield is 50 to 75%.

With SPSSVFTSK, the peptide exchange yield was in the range of 50 to 75%.

LVILQHQAM gave a peptide exchange yield of 50 to 75%.

Regarding KTKSLAQQL, the peptide exchange yield is 50 to 75%.

Consider MPFRNIRSIL, for which the peptide exchange yield lay within 50 to 75%.

SSASFSSELFRH displayed a peptide exchange yield of 50 to 75%.

On to GPFQRAAL, for which the peptide exchange yield was in the range of 50 to 75%.

Regarding RPRLRDLPAL, the peptide exchange yield is 50 to 75%.

YPSPLNKHSF displayed a peptide exchange yield of 50 to 75%.

MPRLLRLSL had a peptide exchange yield of 50 to 75%.

As for VPGSDPARYEFL, the peptide exchange yield is 50 to 75%.

Turning to APFHIDRLF, the peptide exchange yield fell in the range of 50 to 75%.

A further experiment has as its target HLA-B*07 (human). Briefly: UV peptide exchange ELISA; ++++ = yield >75%.
VPKSLPYVL displayed a peptide exchange yield above 75%.

WPNHIMLVL yielded a peptide exchange yield above 75%.

In turn, VPRNQDWLGVSRQL registered a peptide exchange yield above 75%.

For VPAQRLGLL, the peptide exchange yield was above 75%.

On to RPYSIYPHGVTF, for which the peptide exchange yield is above 75%.

For LPTDLFNSVM, the peptide exchange yield was above 75%.

SPMEAILVSRL yielded a peptide exchange yield above 75%.

The molecule LPALLRSGLTL returned a peptide exchange yield above 75%.

As to FPRTVKHIDAAL, the peptide exchange yield is above 75%.

In turn, FPRLVGPDFF came in with a peptide exchange yield above 75%.

FPNVYSTLVL yielded a peptide exchange yield above 75%.

SVAIAHGVF: the peptide exchange yield was above 75%.

Consider SPRIPFSTF, for which the peptide exchange yield is above 75%.

As to MPAGGGPRSL, the peptide exchange yield is above 75%.

In turn, IPWFIKTAF gave a peptide exchange yield above 75%.

SPSQTVQRAV showed a peptide exchange yield above 75%.

APHAGGALL: the peptide exchange yield was above 75%.

Regarding RPQPQPRPAL, the peptide exchange yield was above 75%.

Take LPMTVISVL: the peptide exchange yield is above 75%.

On to QPRLVPGETL, for which the peptide exchange yield is above 75%.

Regarding QPVLPSPAC, the peptide exchange yield was above 75%.

In turn, VPKADLLTL returned a peptide exchange yield above 75%.

In the case of APKFISPASQL, the peptide exchange yield is above 75%.

As to LPGEREAAL, the peptide exchange yield is above 75%.

Turning to APLKMLAL, the peptide exchange yield was above 75%.

KPKVESQAL returned a peptide exchange yield above 75%.

On to APRGPAQGEAA, for which the peptide exchange yield was above 75%.

In turn, KPRTIYSSL registered a peptide exchange yield above 75%.

As to APLRVHITSL, the peptide exchange yield is above 75%.

Take RPSFPNLTSF: the peptide exchange yield is above 75%.

On to SPVFYVQTL, for which the peptide exchange yield is above 75%.

Take SPSYTQASL: the peptide exchange yield was above 75%.

Regarding APTPRPKVL, the peptide exchange yield is above 75%.

On to VPVSHPVL, for which the peptide exchange yield is above 75%.

On to RPRQTGALM, for which the peptide exchange yield is above 75%.

Turning to RPNGEVKSEL, the peptide exchange yield is above 75%.

Take QPSLKKIIL: the peptide exchange yield is above 75%.

LPSLHVLVL gave a peptide exchange yield above 75%.

As for VPVSRPVL, the peptide exchange yield is above 75%.

In turn, APMAPGRSPL gave a peptide exchange yield above 75%.

Turning to LPLDTRTSI, the peptide exchange yield was above 75%.

For LPVSSPVTL, the peptide exchange yield is above 75%.

NPVPVITWYKDNRL registered a peptide exchange yield above 75%.
